Assays:
[1] = biological target: µ-type opioid receptor (MOR), rat, wild type, fluorescently tagged, expressed in the PM of CHO-K1 cells (Example 1) (rat) (UniProt P33535); experiment: distribution of colocalisation durations with WT-MOR; single-molecule imaging
[2] = biological target: δ-type opioid receptor (DOR), rat, wild type, fluorescently tagged, expressed in the PM of CHO-K1 cells (Example 1) (rat) (UniProt P33533); experiment: distribution of colocalisation durations with WT-DOR; single-molecule imaging
[3] = biological target: SNAPf-DOR: rat DOR with the SNAPf tag protein at its N-terminus, expressed in the PM of CHO-K1 cells (Example 2) (rat) (UniProt P33533); experiment: single-molecule imaging, PCCF fit; copies/um2
[4] = biological target: SNAPf-DOR: rat DOR with the SNAPf tag protein at its N-terminus, expressed in the PM of CHO-K1 cells (Example 2) (rat) (UniProt P33533); experiment: single-molecule imaging, homodimer 2D-KD; copies/um2; + agonist
[5] = biological target: SNAPf-DOR: rat DOR with the SNAPf tag protein at its N-terminus, expressed in the PM of CHO-K1 cells (Example 2) (rat) (UniProt P33533); experiment: single-molecule imaging, homodimer 2D-KD; copies/um2; - agonist

Q: Which dimer lifetime (τ2) [1] does the source give for “DORΔ22-42 (DOR N-terminal deletion mutant) (from UniProt P33533 1-21; P33533 43-372) (receptor)” here?
A: The dimer lifetime (τ2) was 88 ms.

Q: With “MORΔ32-61 (MOR N-terminal deletion mutant) (from UniProt P33535 1-31; P33535 62-398) (receptor)” as the substance, how does the dimer lifetime (τ2) [2] read?
A: The dimer lifetime (τ2) was 91 ms.

Q: Which results are given for “SNAPf-DOR: rat DOR with the SNAPf tag protein at its N-terminus, expressed in the PM of CHO-K1 cells (Example 2) (from UniProt P33533 1-372)”?
A: Kd [3]: 7.91 ?; Kd [4]: 3.58 ?; Kd [5]: 7.91 ?

From patent US20250368686A1, “PEPTIDE DRUGS FOR S[…] D[…] BLOCKING HOMO- AND HETERO-DIMERIZATION OF OPIOID RECEPTORS” (OKINAWA INSTITUTE OF SCIENCE AND TECHNOLOGY SCHOOL …, priority 2022, published 2025)
